{"source": "patent US20140170149A1", "about": "(Genmab, published 2014)", "key": {"[1]": {"molecular_target": "T1, human CD3 protein complex (human, UniProt P07766 23-207; P09693 23-182; P04234 22-171; P20963 22-164)", "T1 construct": "whole, on cells; also called CD3 on Jurkat cells", "T1 sequence (P07766 23-207, form in doubt, chain 1 of 4)": "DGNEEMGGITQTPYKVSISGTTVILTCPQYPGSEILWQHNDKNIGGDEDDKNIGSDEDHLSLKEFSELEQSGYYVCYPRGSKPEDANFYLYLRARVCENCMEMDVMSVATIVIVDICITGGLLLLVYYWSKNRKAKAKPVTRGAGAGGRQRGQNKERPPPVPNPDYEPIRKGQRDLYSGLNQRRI", "T1 sequence (P09693 23-182, form in doubt, chain 2 of 4)": "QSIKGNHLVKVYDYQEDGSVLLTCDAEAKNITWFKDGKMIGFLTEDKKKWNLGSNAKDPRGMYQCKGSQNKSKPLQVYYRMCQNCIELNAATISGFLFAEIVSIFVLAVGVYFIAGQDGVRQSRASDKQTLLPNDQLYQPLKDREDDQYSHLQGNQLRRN", "T1 sequence (P04234 22-171, form in doubt, chain 3 of 4)": "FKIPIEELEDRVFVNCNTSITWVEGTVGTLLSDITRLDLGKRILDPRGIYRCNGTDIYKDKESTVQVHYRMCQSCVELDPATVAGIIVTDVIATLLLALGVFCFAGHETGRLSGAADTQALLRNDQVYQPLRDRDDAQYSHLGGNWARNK", "T1 sequence (P20963 22-164, form in doubt, chain 4 of 4)": "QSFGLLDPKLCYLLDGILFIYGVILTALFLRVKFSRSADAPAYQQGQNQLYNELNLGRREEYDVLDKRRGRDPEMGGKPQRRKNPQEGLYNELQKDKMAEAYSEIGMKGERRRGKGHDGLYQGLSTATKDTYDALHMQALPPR", "assay": "flow cytometry on Jurkat cells (CD3-expressing T cell line), MFI (PE) (Example 21)"}, "[2]": {"molecular_target": "T1, human CD3 protein complex", "assay": "flow cytometry on Jurkat cells (CD3-expressing T cell line), MFI (PE) (Example 21)", "remark": "listed apart in the source"}, "[3]": {"molecular_target": "T2, human epidermal growth factor receptor 2 (HER2) (human, UniProt P04626 23-1255)", "T2 construct": "whole, on cells; One entry for endogenous HER2 on tumor cell lines and for the fully human construct hu-HER2 on CHO-S cells; also called ErbB-2; hu-HER2", "assay": "flow cytometry on CHO-S cells transiently transfected with hu-HER2, PE-goat anti-human IgG, MFI (Example 24)"}, "[4]": {"molecular_target": "T2, human epidermal growth factor receptor …", "assay": "cell-based or functional assay"}, "[5]": {"molecular_target": "T2, human epidermal growth factor receptor …", "assay": "flow cytometry on AU565 cells (high HER2), PE-goat anti-human IgG, MFI; EC50 by non-linear regression (Example 12)", "protocol": "(§1) Binding of HER2 antibodies was detected using a Phycoerythrin (PE)-conjugated goat-anti-human IgG antibody (Jackson). […] EC₅₀ values were determined by means of non-linear regression (sigmoidal dose-response with variable slope) using GraphPad Prism V4.03 software (GraphPad Software, San Diego, Calif., USA)."}, "[6]": {"molecular_target": "T2, human epidermal growth factor receptor …", "assay": "flow cytometry on A431 cells (low HER2), PE-goat anti-human IgG, MFI; EC50 by non-linear regression (Example 12)", "protocol": "as §1"}, "[7]": {"molecular_target": "T1, human CD3 protein complex", "assay": "flow cytometry on Jurkat cells (CD3-expressing T cell line), MFI (PE) (Example 21)", "remark": "listed apart in the source"}}, "note": "Where two headings read alike, the source gives them in different places."}
{"binder": "IgG1-huOKT3-F405L (antibody, V domains shown, Expressed as IgG1,κ with F405L; also called huOKT3-C114S-gLC; IgG1-OKT3) VH: QVQLVQSGGGVVQPGRSLRLSCKASGYTFTRYTMHWVRQAPGKGLEWIGYINPSRGYTNYNQKVKDRFTISRDNSKNTAFLQMDSLRPEDTGVYFCARYYDDHYSLDYWGQGTPVTVSS VL: DIQMTQSPSSLSASVGDRVTITCSASSSVSYMNWYQQTPGKAPKRWIYDTSKLASGVPSRFSGSGSGTDYTFTISSLQPEDIATYYCQQWSSNPFTFGQGTKLQIT", "values": [{"measurement": "EC50 (read off the curve)", "setting": "[1]", "result": "~0.02", "unit": "µg/mL"}]}
{"binder": "huOKT3-F405L x b12-K409R (bispecific antibody, also called huOKT3 x b12; CD3xb12 control) heavy chain, CD3 arm (huOKT3-C114S-gLC, IgG1-F405L): not shown light chain, CD3 arm: DIQMTQSPSSLSASVGDRVTITCSASSSVSYMNWYQQTPGKAPKRWIYDTSKLASGVPSRFSGSGSGTDYTFTISSLQPEDIATYYCQQWSSNPFTFGQGTKLQIT heavy chain, b12 arm (IgG1-K409R): not shown light chain, b12 arm: EIVLTQSPGTLSLSPGERATFSCRSSHSIRSRRVAWYQHKPGQAPRLVIHGVSNRASGISDRFSGSGSGTDFTLTITRVEPEDFALYYCQVYGASSYTFGQGTKLERK", "values": [{"measurement": "EC50 (read off the curve)", "setting": "[1]", "result": "~3", "unit": "µg/mL"}]}
{"binder": "IgG1-HUM291-F405L (antibody, V domains shown, Expressed as IgG1,κ with F405L; also called visilizumab) VH: QVQLVQSGAEVKKPGASVKVSCKASGYTFISYTMHWVRQAPGQGLEWMGYINPRSGYTHYNQKLKDKATLTADKSASTAYMELSSLRSEDTAVYYCARSAYYDYDGFAYWGQGTLVTVSS VL: DIQMTQSPSSLSASVGDRVTITCSASSSVSYMNWYQQKPGKAPKRLIYDTSKLASGVPSRFSGSGSGTDFTLTISSLQPEDFATYYCQQWSSNPPTFGGGTKVEIK", "values": [{"measurement": "EC50 (read off the curve)", "setting": "[2]", "result": "~0.02", "unit": "µg/mL"}]}
{"binder": "HER2 HuMab 153 (antibody, V domains shown, also called PC1014-153; TH1014-153) VH: QVQLVESGGGVVQPGRSLRLSCAASGFTFSDYVIHWVRQAPGKGLEWVTVISYDGSNKYYADSVKGRFTISRDNSKNTLYLQMNSLSAEDTAMYYCARGGITGTTGVFDYWGQGTLVTVSS VL: DIQMTQSPSSLSASVGDRVTITCRASQGISSWLAWYQQKPEKAPKSLIYDASSLQSGVPSRFSGSGYGTDFSLTISSLQPEDFAIYYCQQYKSYPITFGQGTRLEIK", "values": [{"measurement": "EC50 (read off the curve)", "setting": "[3]", "result": "~0.04", "unit": "µg/mL"}, {"measurement": "EC50, fab-CypHer5E internalization assay, AU565 cells", "setting": "[4]", "result": "~0.0149", "unit": "µg/mL"}, {"measurement": "Maximal MFI, fab-CypHer5E internalization assay, AU565 cells", "setting": "[4]", "result": 87500, "unit": "MFI"}, {"measurement": "EC50", "setting": "[5]", "result": 0.626, "unit": "µg/mL"}, {"measurement": "EC50", "setting": "[6]", "result": 0.244, "unit": "µg/mL"}]}
{"binder": "IgG1-huOKT3-F405L × IgG1-HER2-153-K409R (bispecific antibody, Made by 2-MEA-induced Fab-arm exchange; IgG1,κ; also called huOKT3×153) heavy 1: not shown VL 1: DIQMTQSPSSLSASVGDRVTITCRASQGISSWLAWYQQKPEKAPKSLIYDASSLQSGVPSRFSGSGYGTDFSLTISSLQPEDFAIYYCQQYKSYPITFGQGTRLEIK heavy 2: not shown VL 2: DIQMTQSPSSLSASVGDRVTITCSASSSVSYMNWYQQTPGKAPKRWIYDTSKLASGVPSRFSGSGSGTDYTFTISSLQPEDIATYYCQQWSSNPFTFGQGTKLQIT", "values": [{"measurement": "EC50 (read off the curve)", "setting": "[1]", "result": "~2", "unit": "µg/mL"}]}
{"binder": "IgG1-HUM291-F405L × IgG1-HER2-153-K409R (bispecific antibody, Made by 2-MEA-induced Fab-arm exchange; IgG1,κ; also called HUM291×153) heavy 1: not shown VL 1: DIQMTQSPSSLSASVGDRVTITCRASQGISSWLAWYQQKPEKAPKSLIYDASSLQSGVPSRFSGSGYGTDFSLTISSLQPEDFAIYYCQQYKSYPITFGQGTRLEIK heavy 2: not shown VL 2: DIQMTQSPSSLSASVGDRVTITCSASSSVSYMNWYQQKPGKAPKRLIYDTSKLASGVPSRFSGSGSGTDFTLTISSLQPEDFATYYCQQWSSNPPTFGGGTKVEIK", "values": [{"measurement": "EC50 (read off the curve)", "setting": "[2]", "result": "~2", "unit": "µg/mL"}]}
{"binder": "IgG1-hu-CLB-T3/4-F405L × IgG1-HER2-169-K409R (bispecific antibody, Made by 2-MEA-induced Fab-arm exchange; IgG1,κ) heavy 1: not shown VL 1: EIVLTQSPATLSLSPGERATLSCRASQSVSSYLAWYQQKPGQAPRLLIYDASNRATGIPARFSGSGSGTDFTLTISSLEPEDFAVYYCQQRSNWPRTFGQGTKVEIK heavy 2: not shown VL 2: EIVLTQSPATLSLSPGERATLSCSASSSVTYVHWYQQKPGQAPRLLIYDTSKLASGIPARFSGSGSGTDFTLTISSLEPEDFAVYYCFQGSGYPLTFGSGTKLEMR", "values": [{"measurement": "EC50 (read off the curve)", "setting": "[7]", "result": "~0.2", "unit": "µg/mL"}]}
{"binder": "huCLB-T3/4-F405L x b12-K409R (bispecific antibody, also called huCLB-T3/4 x b12; CD3xb12 control) heavy chain, CD3 arm (huCLB-T3/4, IgG1-F405L): not shown light chain, CD3 arm: EIVLTQSPATLSLSPGERATLSCSASSSVTYVHWYQQKPGQAPRLLIYDTSKLASGIPARFSGSGSGTDFTLTISSLEPEDFAVYYCFQGSGYPLTFGSGTKLEMR heavy chain, b12 arm (IgG1-K409R): not shown light chain, b12 arm: EIVLTQSPGTLSLSPGERATFSCRSSHSIRSRRVAWYQHKPGQAPRLVIHGVSNRASGISDRFSGSGSGTDFTLTITRVEPEDFALYYCQVYGASSYTFGQGTKLERK", "values": [{"measurement": "EC50 (read off the curve)", "setting": "[7]", "result": "~0.2", "unit": "µg/mL"}]}
